Results as given in patent US20220135701A1 (Genentech, published 2022).
Like-named read-outs stand apart in the source and are kept apart here.

T1: mouse MerTK on mouse macrophages (mouse, UniProt Q60805 19-994)
T1 sequence (looked up): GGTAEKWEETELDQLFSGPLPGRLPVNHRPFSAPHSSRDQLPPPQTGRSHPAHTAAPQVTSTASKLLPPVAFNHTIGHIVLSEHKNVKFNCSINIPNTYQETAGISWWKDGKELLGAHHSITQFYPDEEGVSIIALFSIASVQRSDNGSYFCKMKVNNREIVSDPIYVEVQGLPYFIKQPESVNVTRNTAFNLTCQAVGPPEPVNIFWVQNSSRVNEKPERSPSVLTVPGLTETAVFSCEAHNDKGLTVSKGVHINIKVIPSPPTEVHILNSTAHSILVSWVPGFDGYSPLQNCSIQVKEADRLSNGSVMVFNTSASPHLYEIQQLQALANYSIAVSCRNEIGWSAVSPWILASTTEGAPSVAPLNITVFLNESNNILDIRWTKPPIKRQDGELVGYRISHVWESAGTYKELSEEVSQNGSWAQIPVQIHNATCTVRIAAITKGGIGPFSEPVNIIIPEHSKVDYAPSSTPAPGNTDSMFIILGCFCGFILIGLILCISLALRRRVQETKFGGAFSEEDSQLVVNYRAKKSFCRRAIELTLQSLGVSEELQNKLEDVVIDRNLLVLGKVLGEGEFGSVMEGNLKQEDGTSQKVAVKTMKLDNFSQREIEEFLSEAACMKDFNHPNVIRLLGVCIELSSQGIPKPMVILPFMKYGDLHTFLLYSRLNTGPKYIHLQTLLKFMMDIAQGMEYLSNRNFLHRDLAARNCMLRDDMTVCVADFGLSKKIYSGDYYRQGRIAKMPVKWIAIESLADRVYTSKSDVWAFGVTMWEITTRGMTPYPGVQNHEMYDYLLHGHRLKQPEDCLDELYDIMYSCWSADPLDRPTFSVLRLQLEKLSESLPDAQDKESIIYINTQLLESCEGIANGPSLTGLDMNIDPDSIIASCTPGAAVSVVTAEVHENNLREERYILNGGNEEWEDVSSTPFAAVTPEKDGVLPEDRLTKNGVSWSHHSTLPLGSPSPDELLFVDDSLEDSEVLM

T2: human MerTK (human, UniProt Q12866 26-499)
T2 construct: also called HuMER
T2 sequence: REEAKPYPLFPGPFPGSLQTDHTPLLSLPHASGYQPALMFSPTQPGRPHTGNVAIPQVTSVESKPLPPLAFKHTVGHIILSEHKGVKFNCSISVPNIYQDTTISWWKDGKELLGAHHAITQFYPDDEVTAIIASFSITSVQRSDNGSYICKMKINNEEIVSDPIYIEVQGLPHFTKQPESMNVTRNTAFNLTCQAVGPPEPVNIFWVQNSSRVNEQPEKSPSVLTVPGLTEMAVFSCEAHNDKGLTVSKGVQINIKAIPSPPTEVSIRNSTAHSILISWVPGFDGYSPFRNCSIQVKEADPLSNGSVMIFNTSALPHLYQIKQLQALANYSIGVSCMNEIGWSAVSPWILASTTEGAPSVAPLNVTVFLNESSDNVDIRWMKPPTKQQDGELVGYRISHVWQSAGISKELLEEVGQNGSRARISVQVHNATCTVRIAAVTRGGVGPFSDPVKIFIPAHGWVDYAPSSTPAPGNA

T3: cynomolgus monkey MerTK (cynomolgus monkey, UniProt A0A2K5V1H9 32-505)
T3 construct: Soluble analyte in SPR; also called Cyno MerTK
T3 sequence: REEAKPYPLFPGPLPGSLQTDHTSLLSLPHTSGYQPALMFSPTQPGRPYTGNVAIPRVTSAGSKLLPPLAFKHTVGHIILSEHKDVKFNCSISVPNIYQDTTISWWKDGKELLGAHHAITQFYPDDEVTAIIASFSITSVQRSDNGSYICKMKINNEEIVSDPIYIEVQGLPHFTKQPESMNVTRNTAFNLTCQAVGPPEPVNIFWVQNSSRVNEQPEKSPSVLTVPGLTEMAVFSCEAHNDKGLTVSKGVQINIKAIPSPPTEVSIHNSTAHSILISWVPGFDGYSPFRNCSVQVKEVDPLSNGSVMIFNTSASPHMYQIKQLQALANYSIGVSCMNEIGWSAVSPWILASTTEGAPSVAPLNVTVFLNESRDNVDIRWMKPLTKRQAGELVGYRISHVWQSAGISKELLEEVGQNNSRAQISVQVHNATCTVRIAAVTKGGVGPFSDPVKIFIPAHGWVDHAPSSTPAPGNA

T4: rat MerTK (rat, UniProt P57097 23-496, limits assumed)
T4 construct: Soluble analyte in SPR
T4 sequence (looked up): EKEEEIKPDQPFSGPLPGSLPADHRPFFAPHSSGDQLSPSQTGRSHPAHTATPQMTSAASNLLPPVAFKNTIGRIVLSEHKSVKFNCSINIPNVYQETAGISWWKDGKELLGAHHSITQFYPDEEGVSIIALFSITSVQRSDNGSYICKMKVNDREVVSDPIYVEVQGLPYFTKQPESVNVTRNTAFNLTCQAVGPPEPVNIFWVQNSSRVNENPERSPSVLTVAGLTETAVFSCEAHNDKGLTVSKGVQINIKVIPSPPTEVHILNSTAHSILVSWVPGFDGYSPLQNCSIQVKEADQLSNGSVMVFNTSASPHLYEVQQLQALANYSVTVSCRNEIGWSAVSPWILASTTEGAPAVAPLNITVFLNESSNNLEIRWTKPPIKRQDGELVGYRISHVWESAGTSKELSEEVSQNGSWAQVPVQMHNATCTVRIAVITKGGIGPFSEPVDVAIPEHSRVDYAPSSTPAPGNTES

T5: mouse MerTK (mouse, UniProt Q60805 23-496)
T5 construct: also called MuMER
T5 sequence (looked up): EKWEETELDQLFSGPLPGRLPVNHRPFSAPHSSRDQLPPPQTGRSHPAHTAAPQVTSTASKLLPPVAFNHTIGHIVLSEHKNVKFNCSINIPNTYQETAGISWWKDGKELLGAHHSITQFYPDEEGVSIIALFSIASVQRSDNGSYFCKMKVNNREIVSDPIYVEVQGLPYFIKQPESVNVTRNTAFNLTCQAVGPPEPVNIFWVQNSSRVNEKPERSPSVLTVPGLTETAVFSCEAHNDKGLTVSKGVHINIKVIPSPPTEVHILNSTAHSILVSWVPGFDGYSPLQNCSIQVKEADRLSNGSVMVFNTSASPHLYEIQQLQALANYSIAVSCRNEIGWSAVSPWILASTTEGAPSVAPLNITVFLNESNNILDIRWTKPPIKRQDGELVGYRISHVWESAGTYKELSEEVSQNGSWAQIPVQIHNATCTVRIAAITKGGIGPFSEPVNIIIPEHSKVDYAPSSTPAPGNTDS


Experiments:
[1] = target: T1, mouse MerTK on mouse macrophages; assay: cell-based or functional assay
[2] = target: T2, human MerTK; assay: SPR BIAcore T200, Ab captured, 37C
[3] = target: T2, human MerTK; assay: SPR BIAcore T200, Ab captured, 37C; remark: listed apart in the source
Protocol: (§1) All binding affinity determinations were obtained using Surface Plasmon Resonance (SPR) measurements from a BIAcore™-T200 instrument. Briefly, each rabbit or humanized antibody was captured to achieve approximately 100 RU (Response Units). Then, 3-fold serial dilutions of MerTK from various species (0.4 nM to 100 nM) diluted in HBS-EP buffer (0.01M HEPES pH 7.4, 0.15M NaCl, 3 mM EDTA and 0.05% v/v surfactant P20) was injected into the BIAcore™-T200 instrument at 25° C. or 37° C. with a flow rate of 30 μl/min. Association rates (kₒₙ) and dissociation rates (koff) were calculated using a simple one-to-one Langmuir binding model (BIAcore T200 evaluation software version 2.0). The equilibrium dissociation constant (KD) was calculated as the ratio koff/kₒₙ.

[4] = target: T3, cynomolgus monkey MerTK; assay: SPR BIAcore T200, Ab captured, 37C
Protocol: as §1

[5] = target: T4, rat MerTK; assay: SPR BIAcore T200, Ab captured, 37C
Protocol: as §1

[6] = target: T5, mouse MerTK; assay: SPR BIAcore T200, Ab captured, 37C
Protocol: as §1

[7] = target: T2, human MerTK; assay: SPR BIAcore T200, Ab captured, 37C; remark: listed apart in the source
How it was run: (§2)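 Rabbit or humanized antibody captured to ~100 RU; MerTK injected as 3-fold dilutions from 0.4 nM to 100 nM in HBS-EP (HEPES pH 7.4) at 30 μl/min, at 25° C. or 37° C. kon and koff fitted to a 1:1 Langmuir model; KD = koff/kon.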

[8] = target: T3, cynomolgus monkey MerTK; assay: SPR BIAcore T200, Ab captured, 37C; remark: listed apart in the source
How it was run: as §2

[9] = target: T4, rat MerTK; assay: SPR BIAcore T200, Ab captured, 37C; remark: listed apart in the source
How it was run: as §2

[10] = target: T5, mouse MerTK; assay: SPR BIAcore T200, Ab captured, 37C; remark: listed apart in the source
How it was run: as §2

pAKT levels in macrophages incubated with the ligand [1] | Kd [2] | Kd [3] | Kd [4] | Kd [5] | Kd [6] | Kd [7] | Kd [8] | Kd [9] | Kd [10] | Molecule
84 pM | – | – | – | – | – | – | – | – | – | recombinant human GAS6-Fc protein (from UniProt Q14393 31-678) (Fc fusion)
– | 13.8 nM | 12.9 nM | 5.3 nM | 3.3 nM | 1.1 nM | 11.6 nM | 5.3 nM | 3.3 nM | 1 nM | h10C3.v1 (antibody, V domains shown, also called h10C3.V1 (Parent); 10C3 Humanized mAb V1) VH: EQQLVESGGGLVQPGGSLRLSCAASGFSLSGYTMGWVRQAPGKGLEYIGVISSGGTTYYTNWAKGRFTISKDSSKNTVYLQMGSLRAEDMAVYFCARVAFTAYGGGGFPTLHRLDLWGQGTLVTVSS VL: DQVLTQSPDSLAVSLGERATINCQSSESVYNNDYLAWYQQKPGQPPKLLIYSASTLASGVPDRFSGSGSGTDFTLTISSLQAEDVAVYYCAGGYLGNNVFGGGTKVEIK
